In article PMC12812394:

Target: Pi65-nLUC (rice (Oryza sativa ssp. japonica cv. GY129))
Assay: split reporter (BiFC, NanoBiT); NanoLuc luciferase complementation (nLUC/cLUC fusions, 35S promoter) in co-infiltrated Nicotiana benthamiana leaves, 48-72 h at 22 °C; whole-leaf luminescence with furimazine, 1-min exposure

B1: OsAPx4-cLUC (enzyme)
chain: MAAPVVDAEYLRQVDRARRHLRALISSKGCAPIMLRLAWHDAGTYDVNTKTGGANGSIRYEEEYTHGSNAGLKIAIDLLEPIKAKSPKITYADLYQLAGVVAVEVTGGPTVEFIPGRRDSSVCPREGRLPDAKKGALHLRDIFYRMGLSDKDIVALSGGHTLGRAHPERSGFEGAWTQEPLKFDNSYFLELLKGESEGLLKLPTDKALLEDPSFRRYVDLYARDEDTFFKDYAESHKKLSELGFTPRSSGPASTKSDLSTGAVLAQSAVGVAVAAAVVIVSYLYEASKKSK
**Q.** How did the luminescence, fold over the negative controls turn out when B1 was run?
**A.** The luminescence, fold over the negative controls was 12.3 fold.
